Assay results from PMC7515722, “Participation of RecJ in the base excision repair pathway of Deinococcus radiodurans”.

T1: drRecJ WT (Deinococcus radiodurans, UniProt D0EM60 1-705)
T1 sequence: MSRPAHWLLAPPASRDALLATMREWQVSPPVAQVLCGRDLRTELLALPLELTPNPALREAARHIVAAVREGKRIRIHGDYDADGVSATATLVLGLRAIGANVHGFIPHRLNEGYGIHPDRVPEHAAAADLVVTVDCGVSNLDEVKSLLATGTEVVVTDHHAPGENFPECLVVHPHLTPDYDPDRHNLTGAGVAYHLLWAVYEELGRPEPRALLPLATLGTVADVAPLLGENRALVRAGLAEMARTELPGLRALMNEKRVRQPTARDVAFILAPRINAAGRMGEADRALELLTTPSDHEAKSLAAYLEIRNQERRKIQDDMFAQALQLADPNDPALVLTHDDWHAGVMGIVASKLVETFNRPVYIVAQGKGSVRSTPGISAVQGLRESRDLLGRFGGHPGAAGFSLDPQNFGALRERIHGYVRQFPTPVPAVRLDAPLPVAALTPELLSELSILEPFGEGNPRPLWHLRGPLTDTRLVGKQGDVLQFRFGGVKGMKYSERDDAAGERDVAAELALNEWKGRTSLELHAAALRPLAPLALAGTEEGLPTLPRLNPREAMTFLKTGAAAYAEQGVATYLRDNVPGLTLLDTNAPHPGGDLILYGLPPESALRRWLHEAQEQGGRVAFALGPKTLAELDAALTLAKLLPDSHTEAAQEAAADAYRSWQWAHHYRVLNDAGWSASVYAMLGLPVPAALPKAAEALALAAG


biological target: T1, drRecJ WT; assay: EMSA; no Mn2+ added; EMSA: 10 nM 3'-6-FAM ssDNA, 50 mM Tris-HCl pH 7.5, 150 mM KCl, 0.1 mg/ml BSA, 1 mM DTT, 5% glycerol, 20 min at 30 C; 8% native PAGE in TBE; Hill fit; details: protein: recombinant; label: 3'-6-FAM

Binder	Kd
AAAAAAAAAAAAAAAAAAAA (ssDNA) [KY08, (dA)20]	54.9 ± 5.18 nM
AAAAAAAAAAAAAAAAAAAA (ssDNA, 5'-monophosphate) [KY10, 5'-P-(dA)20]	33.9 ± 2.83 nM
AAAAAAAAAAAAAAAAAAAA (ssDNA, 5'-P-dSpacer (tetrahydrofuran abasic, 5'-dRP mimic) added before A1) [KY11, 5'-P-dSpacer-(dA)20]	28.4 ± 3.1 nM
